± gives the uncertainty stated by the source.
Assay: protein stability index of a GFP-peptide fusion (yeast GPS) (PSI 1-4); higher = more stable; sorted into four equal gates, so the index is relative within each strain
Method in brief: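 Yeast carrying a pooled library were grown to mid-log phase in leucine-free medium. Each library plasmid expresses Cherry and has a tiled 17-residue yeast protein peptide fused downstream of GFP. Cells were sorted into four equal gates by GFP/Cherry ratio, and plasmids from each gate were PCR-amplified, Illumina-sequenced and assigned to strains by barcode. Summing, across gates, the read frequency times the gate number gave each peptide's protein stability index.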

| Sequence | protein stability index (doa10∆) | protein stability index (pdr5∆) | protein stability index (san1∆) | protein stability index (ubr1∆) |
| --- | --- | --- | --- | --- |
| INAEEIVDFTLPPPPPP [PRP8] | 2.94 ± 0.07 | 3.06 ± 0.053 | 3.01 ± 0.047 | 3.04 ± 0.045 |
| INGWELTKAQKYLEQVL [RPL17A] | 3.34 ± 0.06 | 3.44 ± 0.053 | 3.4 ± 0.036 | 3.36 ± 0.046 |
| INHTILGKLQDVFNLLP [RPN8] | 3.16 ± 0.066 | 3.17 ± 0.081 | 2.84 ± 0.048 | 2.96 ± 0.046 |
| INKQRVPLSDNAIIEAN [RPL7A] | 2.6 ± 0.058 | 2.61 ± 0.064 | 2.51 ± 0.066 | 2.54 ± 0.053 |
| INLRKVAEKMNGCSGAD [RPT6] | 2.45 ± 0.15 | 2.25 ± 0.28 | 2.38 ± 0.13 | 3.07 ± 0.29 |
| INMADRSLGLQQVVCIF [POP6] | 1.39 ± 0.093 | 1.3 ± 0.11 | 1.4 ± 0.15 | 1.06 ± 0.11 |
| INPESREIVMPAHTKYM [ITC1] | 1.63 ± 0.17 | 1.5 ± 0.2 | 1.69 ± 0.14 | 2.18 ± 0.11 |
| INTHIETLAYNSLKETL [SNF2] | 2.48 ± 0.054 | 2.76 ± 0.063 | 2.5 ± 0.047 | 2.61 ± 0.042 |
| IPDHLAELIPELYSFQQ [SNF12] | 3.02 ± 0.077 | 2.94 ± 0.07 | 2.95 ± 0.05 | 2.93 ± 0.059 |
| IPQSQQVPQVRSMSGQP [SNF5] | 2.52 ± 0.05 | 2.55 ± 0.047 | 2.5 ± 0.047 | 2.7 ± 0.039 |
| IPRTFRTPVPSTLMPGG [SNF5] | 2.68 ± 0.066 | 2.18 ± 0.05 | 2.44 ± 0.045 | 2.65 ± 0.048 |
| IPSLQNNIEENLRLLNS [ECM29] | 3.13 ± 0.065 | 3.17 ± 0.061 | 3.34 ± 0.055 | 3.25 ± 0.061 |
| IPYAAKLLFQELLSMNI [RET1] | 1.55 ± 0.1 | 1.46 ± 0.084 | 1.31 ± 0.16 | 1.35 ± 0.056 |
| IQAGKFDNKSTSEEQEA [SNF2] | 3.28 ± 0.068 | 3.36 ± 0.16 | 2.84 ± 0.17 | 2.94 ± 0.12 |
| IQEANSVDMSALKDPQT [RIP1] | – | 3.43 ± 0.21 | – | 3.26 ± 0.077 |
| IQNDIYLNDLMITKRIL [RPN12] | 2.34 ± 0.18 | 2.76 ± 0.14 | 2.72 ± 0.25 | 2.65 ± 0.12 |
| IQQHARYDCSFCGKKTV [RPL43A] | 2.71 ± 0.23 | 2.94 ± 0.1 | 2.81 ± 0.065 | 3.06 ± 0.066 |
| IQSSLMTNLTYFLHLSV [YCS4] | 2.15 ± 0.065 | 1.94 ± 0.049 | 1.89 ± 0.085 | 2.44 ± 0.058 |
| IQVAAFIYGMSAKDHPK [PRP8] | 3.24 ± 0.091 | 2.98 ± 0.12 | 3.19 ± 0.082 | 3.17 ± 0.12 |
| IQVLTEASSLGYLDDSE [IRR1] | 1.3 ± 0.068 | 1.56 ± 0.057 | 1.76 ± 0.1 | 1.42 ± 0.055 |
| IRDPLTQTGLLQDLEEA [RPC82] | 3.31 ± 0.23 | 3.2 ± 0.17 | 3.15 ± 0.28 | – |
| IRDSIPQMDSFDKDLER [DIS3] | 3.15 ± 0.092 | 3.32 ± 0.1 | 3.19 ± 0.061 | 3.01 ± 0.12 |
| IREGQNQKIPDNVIVIN [SIR3] | 2.9 ± 0.049 | 3.12 ± 0.065 | 2.98 ± 0.057 | 3 ± 0.046 |
| IREIDVTGGKKALVLFV [RPS7B] | 1.3 ± 0.085 | 1.5 ± 0.1 | 1.3 ± 0.21 | 1.23 ± 0.063 |
| IREINYTMSNHGMSVDP [RPO31] | 2.87 ± 0.16 | 3.03 ± 0.2 | 3.03 ± 0.11 | 3.06 ± 0.13 |
| IRGKILTGTVVSTKMHR [RPS11A] | 3 ± 0.066 | 2.99 ± 0.051 | 2.79 ± 0.052 | 2.9 ± 0.039 |
| IRKDPNNLSNQLETLTG [CSE2] | 2.87 ± 0.11 | 2.91 ± 0.098 | 2.68 ± 0.11 | 2.77 ± 0.095 |

| Sequence | protein stability index (doa10∆) | protein stability index (pdr5∆) | protein stability index (san1∆) | protein stability index (ubr1∆) |
| --- | --- | --- | --- | --- |
| IRNCATEAGFFAIRDDR [RPT4] | 2.82 ± 0.062 | 3.24 ± 0.079 | 2.78 ± 0.097 | 2.91 ± 0.042 |
| IRTILVNIHHLLNEYRP [MED7] | 2.21 ± 0.064 | 2 ± 0.065 | 1.65 ± 0.12 | 1.58 ± 0.053 |
| IRYNAKRRNWRRTKMNI [RPL39] | 3.23 ± 0.095 | 3.23 ± 0.093 | 3.07 ± 0.095 | 3.32 ± 0.057 |
| ISAEDRADTDLAMNDDD [SNF2] | 3.44 ± 0.23 | 3.45 ± 0.14 | 3.35 ± 0.069 | 3.32 ± 0.085 |
| ISAFTQFLRLIFVSILS [ARP9] | 2.17 ± 0.065 | 1.88 ± 0.1 | 2.9 ± 0.12 | 1.22 ± 0.027 |
| ISCPLIGVIQLAHYVVT [FAS1] | 1.57 ± 0.072 | 1.2 ± 0.041 | 1.24 ± 0.093 | 1.27 ± 0.042 |
| ISDYQQLESIYFRILLP [SWI1] | 2.24 ± 0.045 | 2.33 ± 0.037 | 2.06 ± 0.049 | 2.34 ± 0.065 |
| ISENTFPNGFKNFENGP [RPC34] | 2.96 ± 0.081 | 3.03 ± 0.069 | 2.91 ± 0.052 | 2.57 ± 0.034 |
| ISFRSNLLKNFISSNDA [SNF6] | 2.77 ± 0.12 | 1.75 ± 0.086 | 2.35 ± 0.21 | 2.27 ± 0.074 |
| ISKDCSAFACKTDEVII [BRR2] | 2.99 ± 0.12 | 3.38 ± 0.082 | 3.44 ± 0.088 | 2.88 ± 0.073 |
| ISKTTLTLDPRYIWRSL [RPN3] | 2.75 ± 0.1 | 2.61 ± 0.082 | 2.5 ± 0.085 | 2.6 ± 0.15 |
| ISPESVFGTLGELIKVN [SMC3] | 2.15 ± 0.06 | 2.25 ± 0.078 | 1.84 ± 0.096 | 1.86 ± 0.036 |
| ISSRTFGQRAVLKFAAH [RPS0A] | 2.35 ± 0.095 | 2.57 ± 0.098 | 2.69 ± 0.089 | 2.49 ± 0.11 |
| ISTLQVKLYGREGSSAR [RPB2] | 2.71 ± 0.17 | 2.77 ± 0.1 | 2.77 ± 0.18 | 2.8 ± 0.086 |
| ISTSDVTRIINSSEIQS [RPL4A] | 2.39 ± 0.04 | 2.64 ± 0.054 | 2.34 ± 0.071 | 2.58 ± 0.043 |
| ISVNSSSFSLTFFPRCI [POP1] | 2.55 ± 0.03 | 2.66 ± 0.035 | 2.44 ± 0.039 | 2.44 ± 0.031 |
| ITFHPKIRARSITLQGD [SMC2] | 2.48 ± 0.049 | 2.56 ± 0.045 | 2.69 ± 0.051 | 2.48 ± 0.043 |
| ITFLQTLYIGNTANGRP [ECM29] | 2.04 ± 0.085 | 2.73 ± 0.09 | 2.6 ± 0.16 | 1.97 ± 0.12 |
| ITGGIIEETSAAIKDLD [RRP43] | 3.13 ± 0.2 | – | – | – |
| ITLENITRLCQTLGLES [MED1] | 2.07 ± 0.04 | 2.28 ± 0.044 | 1.91 ± 0.055 | 1.89 ± 0.037 |
| ITPMNDDQCMLITTYSK [SIN4] | 1.93 ± 0.064 | 2.41 ± 0.075 | 1.98 ± 0.22 | 1.99 ± 0.038 |
| ITQDGKFAYKIDKITDG [YMR129W/POM152] | 2.9 ± 0.087 | 3.03 ± 0.073 | 2.81 ± 0.063 | 2.85 ± 0.051 |
| ITSGGFLLKAYINVSRG [SRB5] | 2.23 ± 0.17 | 2.48 ± 0.12 | 2.32 ± 0.15 | 2.53 ± 0.15 |
| ITSWYENHNKGKLWKDV [QCR9] | 2.81 ± 0.21 | 3.14 ± 0.23 | 3.3 ± 0.1 | 3.21 ± 0.13 |
| ITTFVKRSTVPLNDGFV [YML103C/NUP188] | 2.37 ± 0.066 | 2.32 ± 0.093 | 1.91 ± 0.11 | 2.35 ± 0.053 |
| ITYDKQEPSASQVKDSV [SRP68] | 3.14 ± 0.046 | 3.12 ± 0.062 | 2.98 ± 0.053 | 2.99 ± 0.071 |
